Test: label from the status in PepcDB records

Sequence | protein production
SDDREMDDGRWKASALRVPLQVSSAVIKQEVVTRLAPDPVPLTEGAIGIFLSGTEPESGQEDSGYKVIDNRKYVYSEGHWGPPTANDTIYLVGNDADVCAYYPYKDSYTDKTVIPLQSQDYVETEDIYYALNTMINGFTPAITFDMVHAYSLVELKISRENYFMPCEISKITLKNSNLIKKGTINIAVDGSIHSSETGNYDLTTVTDASPHTLSVGESYVCRVLMIPVPLKIERTDAEGGEFGLSVSLVIDGQQMLVEIPYSELGEFRQGEKYVIGLKIKGTEIVPTVKALEWEDEEVNGGNKYPVE | not failed
SDESDLPSAMPAVPAFGVEERNMVSGVLTLAERSIRSIMTPRTDVSWVNIDDDAATIRQQLTAAPHSFFPVCRGSLDEVVGIGRAKDLVADLITEGRVRRNRLRDPIIVHESIGILRLMDTLKRSRGQLVLVADEFGAIEGLVTPIDVFEAIAGEFPDEDELPDIVAESE | not failed
SDLVITQELARAESQQDAASLKKAYELIKSANLGKSEFDPSESFSPDLFVLCAEQALKMRQPEVSEDCIQMYFKVKAPITQFLGRAHLCRAQMCAPKSAENLEEFENCVTEYMKAINFAKGEPRYYFLVYNASVLYWQMVRPFLKPGYRHHLIPSLSQIINVLSQTEEEDKEWRAELMLELLECYLQAGRKEEAARFCSTAAPFIKSHVPQKYRQIFSVMVNQRIRNRDVRSNFLKSHCSENCVEIT | not failed
SDSAFANLDAAGFLQIWQHFDADDNGYIEGKELDDFFRHMLKKLQPKDKITDERVQQIKKSFMSAYDATFDGRLQIEELANMILPQEENFLLIFRREAPLDNSVEFMKIWRKYDADSSGYISAAELKNFLKDLFLQHKKKIPPNKLDEYTDAMMKIFDKNKDGRLDLNDLARILALQENFLLQFKMDASSQVERKRDFEKIFAHYDVSRTGALEGPEVDGFVKDMMELVRPSISGGDLDKFRECLLTHCDMNKDGKIQKSELALCLGLKHKP | not failed
SEAWEYFHLAPARAGHHPNQYATCRLCGRQVSRGPGVNVGTTALWKHLKSMHREELEKSGHGQ | not failed
SEKYNSLSDFLKEFYIPTYVLSAETEEEEEEESRPTPASPVLVFINSKSGGQLGGELILTYRSLLNHNQVFDLDQETPDKVLRRIYLNLERLKDDDFARQIREKLKIIVAGGDGTAGWLLGVVCDLKLSHPPPIATVPLGTGNNLPFAFGWGKKNPGTDRTAVESFLEQVLKAKVMKIDNWHILMRMKTPKEGGSCDPVAPLELPHSLHAFHRVSPTDELNKEGCHTFRGGFWNYFSLGMDAQISYAFHSERKLHPEKFKNQLVNQSTYVKLGCTQGWFCASLFHPASRNIAQLAKVKIATRNGQWQDLHIPHSIRSIVCLNLPSFSGGLNPWGTPNPRKQRDRGLTPPFVDDGLIEVVGFRNAWHGLVLLAPNGHGTRLAQANRIRFEFHKGATDHTFMRMDGEPWKQPLPLDDETVMVEISHLGQVNMLATHDCRSRSVFDPSTPRHQDGAEDYDDNEDDSVAEGEEFRKFGAADTFKIPDEVDISQLS | failed
SESGFTSKDTYLSHFNPRDYLEKYYKFGSRHSAESQILKHLLKNLFKIFCLDGVKGDLLIDIGSGPTIYQLLSACESFKEIVVTDYSDQNLQELEKWLKKEPEAFDWSPVVTYVCDLEGNRVKGPEKEEKLRQAVKQVLKCDVTQSQPLGAVPLPPADCVLSTLCLDAACPDLPTYCRALRNLGSLLKPGGFLVIMDALKSSYYMIGEQKFSSLPLGREAVEAAVKEAGYTIEWFEVISQSYSSTMANNEGLFSLVARKLSRPL | failed
SFRHTLSVDPSEQLSQDFADPVTDSGYESDEEAAAAATASLSGEEAALWNLVDPQQRLIFVLDGPAAQTLRVKRTGNLERQVVNIHRLPLERAPTVATSLLAATRPQHLVVALRTIEPHQAAAILTSTSYPSLSNVENASQVLVLANDLVQIDDPLLRPLWSDEGTQQNRIQLRWVETGCIGGITAALLAAGCWLRIPVLALLAVEDDDGPSPATLEALLLAAERFGCFTRADWEIRMPNLRQLLAKRQLLYI | not failed
SFYLSELEHSLRVPPHLLNLPLEDAIKSVLQNVFLDKVLADLGLCVSIYDIKSVEGGFVLPGDGAATYKVGLRIVVFRPFVGEVIAAKFKESDANGLRLTLGFFDDIYVPAPLMPKPNRCEPDPYNRKQMIWVWEYGEPKEDYIVDDACQIKFRVESISYPSVPTERAEDAKPFAPMVVTGNMDDDGLGPVSWWDSYEQVDQEE | failed
SGGDVNEAYRVETDTDTFFLLVQRGRKESFYAAEIAGLNEFERAGITAPRVIASGEVNGDVYLVMTYLEEGASGSQRQLGQLVAQLHSQQQEEGKFGFSLPYEGGDISFDNHWQDDWRTIFVDKRLDHLKEELLNRGLWDANDIKVYDKVRSQIVEELEKHQSKPSLLHGDLWGGNYMFLKDGRPALFDPAPLYGDREFDIGITTVFGGFTSEFYDAYNKHYPLAKGASYRLEFYRLYLLMV | failed
SGRLFVRNLSYTSSEEDLEKLFSAYGPLSELHYPIDSLTKKPKGFAFVTFMFPEHAVKAYAEVDGQVFQGRMLHVLPSTIKKEASQ | not failed
SGRPFVEMYSEIPEIIHMTEGRELVIPCRVTSPNITVTLKKFPLDTLIPDGKRIIWDSRKGFIISNATYKEIGLLTCEATVNGHLYKTNYLTHRQTNTIIDVQISTPRPVKLLRGHTLVLNCTATTPLNTRVQMTWSYPDEKNKRASVRRRIDQSNSHANIFYSVLTIDKMQNKDKGLYTCRVRSGPSFKSVNTSVHIYDKAFITVKHR | not failed
SKHAKSFKDDMYLRTEHVVWQKEMLTLARLAAAVDMAAADSKDVANSHIFDAMVNQKIKLQNPEVLKKWLGEQTAFDGKKVLAAYESPESQARADKMQELTETFQIDGTPTVIVGGKYKVEFADWESGMNTIDLLADKVREEQKAAQ | failed
SKQPTSAENSVAKKEDKVPVKKQKTRTVFSSTQLCVLNDRFQRQKYLSLQQMQELSNILNLSYKQVKTWFQNQRMKSKRWQKNN | not failed
SLATCIGEKIEDFKVGNLLGKGSFAGVYRAESIHTGLEVAIKMIDKKAMYKAGMVQRVQNEVKIHCQLKHPSILELYNYFEDSNYVYLVLEMCHNGEMNRYLKNRVKPFSENEARHFMHQIITGMLYLHSHGILHRDLTLSNLLLTRNMNIKIADFGLATQLKMPHEKHYTLCGTPNYISPEIATRSAHGLESDVWSLGCMFYTLLIGRPPFDTDTVKNTLNKVVLADYEMPSFLSIEAKDLIHQLLRRNPADRLSLSSVLDHPFMSRNSSTKSKDEG | not failed
SLDDHTRDPTVKAPDGNPSGWRTDGQWEHETLRRAVVHGVRLYNSGEFHESHDCFEDEWYNYGRGNTESKFLHGMVQVAAGAYKHFDFEDDDGMRSLFRTSLQYFRGVPNDYYGVDLLDVRTTVTNALSDPSALHGWQIRLDGEYPTCRPEDIEFAESLEH | not failed
SLREMLGCCKVYISEARNKTALEAIERALKPFPPAAIVNKFEDAAYGRVGYTVVSSLANGSSSSLKNAVFAMVKTALDTINLELHCGSHPRLGVVDHICFHPLSQTSIEQVSSVANSLAMDIGSILRVPTYLYGAAEKEQCTLDSIRRKLGYFKANREGHEWAGGFDLEMVPLKPDAGPQEVSKAKGVVAVGACGWVSNYNVPVMSNDLKAVRRIARKTSERGGGLASVQTMALVHGEGVIEVACNLLNPSQVGGDEVQGLIERLGREEGLLVGKGYYTDYTPDQIVERYMDLLNNS | failed
SLSEAGYPRKVMQHAEELHERILSFDSRITVPLDFGTTGNEVDKDGPGQLDLVKAGRGRLSGAALAIFGWPEMWNGPNAPHKPTPGFVDEARHQQEIRYKILTGMVRDFPNQVGIAYSPEDFRRLAMEGKFAIVMSMLNAYPLGDDLSQLDKWAARGVRMFGFSYVGNNDWADSSRPLPFFNDSPDALGGLSPLGKQAVERLNDLGVIIDVSQMSTKALEQVAALSRAPIVASHSAPRALVDIKRNLSDHEMQLIKDSGGVIQVVGFPAYLRPLSKPTLDKLDALRARFDLPPLEGLDYALMPGDPIITIWPEQRFGEYASALYGILEEEPKAGLKELVDAIDYTVKKVGIDHVGISSDFNDGGGVDGWKDVSEIRNVTAELITRGYSDADIAKLWGGNFLRAWGEVQKRAKPTATP | not failed
SLYDPAEKYFNCTDIQRAFFEAGIKLGAIFHQYTGIPVNSENASMAEEFIERSTMIQPFVENVRISINNVKRSSGTYSYSSLNEKMLHAEVLINYNGKKVLGVLNYDEGLDYPVMYAKEVL | not failed
SMSEHSAIVTWKRKDSEAFTDNQYSRAHTWEFDGGSKILASASPHVVPVPLSVEANVDPEEAFVAALSSCHMLVFLSIAAKQRYLVESYTDNAVGILGKNSKGKTSVTKVVLRPQVVFSGTSKPTLQQLEKMHHLAHENCFIANSVETEVVTEII | not failed
SNIRLIATDMDGTLTQQGRFSAALLQTLENLKAAGLPILIVTGRSAGWVSGISSLMPIAGAIGENGGLFYPADSEHPLLLTPIADLTGHRQNLALVFQKLKQKFPQIQESGDNRFRITDWTFDVAGLTLAELQLIGNLCQDMGWGFTYSNVQCHIKPQGQEKAIALLQVLQKYFPDYSPTQVVTVGDSPNDESLFNQRYFPLSVGVANVLKYAHQLQHQPSYVTTTAEGEGFCELCSYIL | failed
SNPNDLPDFPEHEYAATQQVGEGVINGDLYLTSASGAIQKGTNTKVALEPATSYMKAYYAKFGNLDAAKRDPDVQPPVLDPRRATYVREATTDQNGRFDFDHIPNGTYYISSELTWSAQSDGKTITEGGTVTKLVTVSGSQPQKVLLTR | not failed
SNRQVQLMARQQRLKAIEDRLEKFYIPLIKAFSSYVYTAQTEDEIETIITCRRYLAGNNLLRVLPMHFKFKADKIAGSANWTFYAKEDFEQWKEALDVLWEEFLEVLKEYYTLSGTEISLPEKPDWLIGYK | not failed
SNTPSAEADWSPGLELHPDYKTWGPEQVCSFLRRGGFEEPVLLKNIRENEITGALLPCLDESRFENLGVSSLGERKKLLSYIQRLVQIHVDTMKVI | not failed
SPSKVQELSVYEINELDRHSPKILKNAFSLMFGLGDLVPFTNKLYTGDLKKRVGITAGLCVVIEHVPEKKGERFEATYSFYFGDYGHLSVQGPYLTYEDSFLAITGGAGIFEGAYGQVKLQQLVYPTKLFYTFYLKGLANDLPLELTGTPVPPSKDIEPAPEAKALEPSGVISNYTN | failed
SQGDCSYSRTALYDLLGVPSTATQAQIKAAYYRQCFLYHPDRNSGSAEAAERFTRISQAYVVLGSATLRRKYDRGLLSDEDLRGPG | not failed
SQLISADGKVFGSYAHSGDNRIYTRYNEISPDLIKALIATEDVRFRKHSGIDSKGLFRAVVKRGILNQKSGGGGSTITQQLAKLLYSPRTETKLGRLFQKPIEWVIAVKLERFYTKEEIITMYLNYFDFLYNAVGIKSAAYTYFGKQPADLKIEEAAVLVGMCKNPAYYNPVLHG | failed
SQYKNISEKIVHIIQQEFDTDLTLESIAGRLHYNPNYLSSIFRKEMKISFSEYLSSYRHHIAKNWLTETTMSVKEISEKLKYKNPQNFIRSFKKLEGITPGKYRELKNHS | not failed
SRFYEQHADCLAEQYTSLKFEDVHASWRAFWPQARDRVLDVGAGSGRDAKWMAEHGCEVIAIEPAQALLRFGKSYCGDSVTWLEDGLPKLEKTINLGFRFDLILVSAVWMHLAPTHRERAFRKLANLLAPNGRLVISLRHGDFSDGRKAYPVSVEELEKFAKNRALMVRNVS | failed
SRPLGEVYLDSSKPAVYNYPEGAAYEFNAAAAANAQVYGQTGLPYGPGSEAAAFGSNGLGGFPPLNSVSPSPLMLLHPPPQLSPFLQPHGQQVPYYLENEPSGYTVREAGPPAFYRPNSDNRRQG | not failed
